{
  "source": "patent US10196657B2",
  "about": "“Methods of producing 7-carbon chemicals via methyl-ester shielded carbon chain elongation” (INVISTA North America S.á r.l., priority 2012, dated 2019)",
  "molecules": {"B1": {"name": "gene product of tesB: Escherichia coli thioesterase encoded by tesB, GenBank Accession No. AAA24665.1 (protein, listed as Escherichia coli)", "chain": "MSQALKNLLTLLNLEKIEEGLFRGQSEDLGLRQVFGGQVVGQALYAAKETVPEERLVHSFHSYFLRPGDSKKPIIYDVETLRDGNSFSARRVAAIQNGKPIFYMTASFQAPEAGFEHQKTMPSAPAPDGLPSETQIAQSLAHLLPPVLKDKFICDRPLEVRPVEFHNPLKGHVAEPHRQVWIRANGSVPDDLRVHQYLLGYASDLNFLPVALQPHGIGFLEPGIQIATIDHSMWFHRPFNLNEWLLYSVESTSASSARGFVRGEFYTQDGVLVASTVQEGVMRNHN"}},
  "test": "Thioesterase enzyme activity assay, pimeloyl-CoA to pimelate (release of CoA, Ellman's reagent)",
  "format": "biochemical",
  "settings": "667 μM pimeloyl-CoA, 0.8 μM enzyme, pH 7.4, 37° C., 20 min; relative to empty vector control; FIG. 8",
  "experimental": "A sequence encoding an N-terminal His tag was added to the tesB gene from Escherichia coli that encodes a thioesterase (SEQ ID NO 1, see FIG. 7A), such that an N-terminal HIS tagged thioesterase could be produced. The modified tesB gene was cloned into a pET15b expression vector under control of the T7 promoter. The expression vector was transformed into a BL21[DE3] E. coli host. The resulting recombinant E. coli strain was cultivated at 37° C. in a 500 mL shake flask culture containing 50 mL Luria Broth (LB) media and antibiotic selection pressure, with shaking at 230 rpm. The culture was induced overnight at 17° C. using 0.5 mM IPTG.\nThe pellet from the induced shake flask culture was harvested via centrifugation. The pellet was resuspended and lysed in Y-Per™ solution (ThermoScientific, Rockford, Ill.). The cell debris was separated from the supernatant via centrifugation. […]\nThe enzyme activity assay was performed in triplicate in a buffer composed of 50 mM phosphate buffer (pH=7.4), 0.1 mM Ellman's reagent, and 667 μM of pimeloyl-CoA (as substrate). […] The release of Coenzyme A was monitored by absorbance at 412 nm. The absorbance associated with the substrate only control, which contained boiled enzyme, was subtracted from the active enzyme assay absorbance and compared to the empty vector control.",
  "data": [
    {"molecule": "B1", "values": [
      {"measurement": "acceptance of pimeloyl-CoA as substrate (release of Coenzyme A, absorbance at 412 nm)", "value": "accepted pimeloyl-CoA as substrate"}
    ]}
  ]
}
